Values of other authors as cited in patent US20070166367A1, “Adept or gdept producing acetaldehyde” (priority 2004, published 2007).
Like-named read-outs stand apart in the source and are kept apart here.

B1: Human B2: human alcohol dehydrogenase β2, atypical liver class I enzyme, B2B2 homodimer (protein, UniProt P00325 2-375, looked up)
All-trans-retinol …: STAGKVIKCKAAVLWEVKKPFSIEDVEVAPPKAYEVRIKMVAVGICHTDDHVVSGNLVTPLPVILGHEAAGIVESVGEGVTTVKPGDKVIPLFTPQCGKCRVCKNPESNYCLKNDLGNPRGTLQDGTRRFTCRGKPIHHFLGTSTFSQYTVVDENAVAKIDAASPLEKVCLIGCGFSTGYGSAVNVAKVTPGSTCAVFGLGGVGLSAVMGCKAAGAARIIAVDINKDKFAKAKELGATECINPQDYKKPIQEVLKEMTDGGVDFSFEVIGRLDTMMASLLCCHEACGTSVIVGVPPASQNLSINPMLLLTGRTWKGAVYGGFKSKEGIPKLVADFMAKKFSLDALITHVLPFEKINEGFDLLHSGKSIRTVLTF
modifications: beta2 allele homodimer
B2: Human B1: usual human alcohol dehydrogenase B1 isoenzyme (protein, UniProt P00325 2-375, looked up)
All-trans-retinol …: B1 All-trans-retinol …
B3: Human class IV: human class IV alcohol dehydrogenase (protein, UniProt P40394 1-386, looked up)
All-trans-retinol …: MFAEIQIQDKDRMGTAGKVIKCKAAVLWEQKQPFSIEEIEVAPPKTKEVRIKILATGICRTDDHVIKGTMVSKFPVIVGHEATGIVESIGEGVTTVKPGDKVIPLFLPQCRECNACRNPDGNLCIRSDITGRGVLADGTTRFTCKGKPVHHFMNTSTFTEYTVVDESSVAKIDDAAPPEKVCLIGCGFSTGYGAAVKTGKVKPGSTCVVFGLGGVGLSVIMGCKSAGASRIIGIDLNKDKFEKAMAVGATECISPKDSTKPISEVLSEMTGNNVGYTFEVIGHLETMIDALASCHMNYGTSVVVGVPPSAKMLTYDPMLLFTGRTWKGCVFGGLKSRDDVPKLVTEFLAKKFDLDQLITHVLPFKKISEGFELLNSGQSIRTVLTF

Molecule	enzymatic rate relative to the usual human ADH enzymes ('physiological' ethanol concentrations)	Km (for ethanol) [µM]	Vmax relative to the usual human alpha, beta and gamma variants (pH 7.5)	Km [µM]
B1	at least 16 fold	940	(Note at pH 7.5 the Vmax of beta 2 is 5-40 times higher that the usual human alpha, beta and gamma variants)	–
B2	–	–	–	49
B3	–	37000	–	–
